From patent US20230035659A1, “Compositions and Methods for TTR Gene Editing and Treating ATTR Amyloidosis Comprising a Corticosteroid or Use Thereof” (Intellia Therapeutics, Inc., priority 2019, published 2023)
Strand notation (5' to 3'): a small letter for the sugar, then the base; units joined by * are phosphorothioate-linked, units joined directly phosphodiester-linked; [ ] holds rarer units or linkages, { } end groups; capitals alone tell only the bases. m = 2'-O-methyl; r = 2'-OH (RNA)

B1: G000494: TTR sgRNA modified sequence, Human, SEQ ID NO: 101; guide sequence of CR003360 (nucleic acid)
guide: mG*mU*mG*rArGrUrCrUrGrGrArGrArGrCrUrGrCrArUrGrUrUrUrUrArGrAmGmCmUmAmGmAmAmAmUmAmGmCrArArGrUrUrArArArArUrArArGrGrCrUrArGrUrCrCrGrUrUrArUrCrAmAmCmUmUmGmAmAmAmAmAmGmUmGmGmCmAmCmCmGmAmGmUmCmGmGmUmGmCmU*mU*mU*mU
B2: G000502: TTR Cyno specific sgRNA modified sequence, SEQ ID NO: 114; guide sequence of CR000689; cross homologous between mouse and cyno (nucleic acid)
guide: mA*mC*mA*rCrArArArUrArCrCrArGrUrCrCrArGrCrGrGrUrUrUrUrArGrAmGmCmUmAmGmAmAmAmUmAmGmCrArArGrUrUrArArArArUrArArGrGrCrUrArGrUrCrCrGrUrUrArUrCrAmAmCmUmUmGmAmAmAmAmAmGmUmGmGmCmAmCmCmGmAmGmUmCmGmGmUmGmCmU*mU*mU*mU
B3: G000499: TTR sgRNA modified sequence, Human, SEQ ID NO: 106; guide sequence of CR005303 (nucleic acid)
guide: mU*mG*mA*rArUrCrCrArArGrUrGrUrCrCrUrCrUrGrArGrUrUrUrUrArGrAmGmCmUmAmGmAmAmAmUmAmGmCrArArGrUrUrArArArArUrArArGrGrCrUrArGrUrCrCrGrUrUrArUrCrAmAmCmUmUmGmAmAmAmAmAmGmUmGmGmCmAmCmCmGmAmGmUmCmGmGmUmGmCmU*mU*mU*mU

How the values were obtained:
human TTR sequence = experiment: Liver editing (NGS) after LNP dosing of mice humanized with respect to the TTR gene; type: in vivo, mouse; conditions: LNP Formulation Numbers 1-5, 2 mg/kg total RNA, Cas9 mRNA SEQ ID NO: 2, 1:1 to guide
Method: Unless otherwise noted, CD-1 female mice, ranging from 6-10 weeks of age were used in each study. Animals were weighed and grouped according to body weight for preparing dosing solutions based on group average weight. LNPs were dosed via the lateral tail vein in a volume of 0.2 mL per animal (approximately 10 mL per kilogram body weight). […] Body weight was measured at twenty-four hours post-administration, and animals were euthanized at various time points by exsanguination via cardiac puncture under isoflourane anesthesia. Blood was collected into serum separator tubes or into tubes containing buffered sodium citrate for plasma as described herein. […]
Additional PCR was performed per the manufacturer's protocols (Illumina) to add chemistry for sequencing. […] The reads were aligned to a reference genome (e.g., the human reference genome (hg38), the cynomologus reference genome (mf5), the rat reference genome (rn6), or the mouse reference genome (mm10)) after eliminating those having low quality scores. The resulting files containing the reads were mapped to the reference genome (BAM files), where reads that overlapped the target region of interest were selected and the number of wild type reads versus the number of reads which contain an insertion, substitution, or deletion was calculated. […]

TTR = TTR editing in primary cyno hepatocytes treated with LNP formulated Spy Cas9 mRNA (SEQ ID NO: 2) and sgRNAs, 12.5 ng mRNA; type: cell-based, cynomolgus monkey; conditions: LNP formulated Spy Cas9 mRNA (SEQ ID NO: 2) and cyno matched sgRNA, lysed 72 hours post treatment
Method: Primary liver hepatocytes. Primary human liver hepatocytes (PHH) and primary cynomolgus liver hepatocytes (PCH) (Gibco) were cultured per the manufacturer's protocol (Invitrogen, protocol 11.28.2012). In brief, the cells were thawed and resuspended in hepatocyte thawing medium with supplements (Gibco, Cat. CM7000) followed by centrifugation at 100 g for 10 minutes for human and 80 g for 4 minutes for cyno. The supernatant was discarded and the pelleted cells resuspended in hepatocyte plating medium plus supplement pack (Invitrogen, Cat. A1217601 and CM3000). Cells were counted and plated on Bio-coat collagen I coated 96-well plates (ThermoFisher, Cat. 877272) at a density of 33,000 cells/well for human or 60,000 cells/well for cyno (or 65,000 cells/well when assaying effects on TTR protein, described further below). Plated cells were allowed to settle and adhere for 6 or 24 hours in a tissue culture incubator at 37° C. and 5% CO2 atmosphere. After incubation cells were checked for monolayer formation and media was replaced with hepatocyte culture medium with serum-free supplement pack (Invitrogen, Cat. A1217601 and CM4000).
In general, the lipid nanoparticle components were dissolved in 100% ethanol with the lipid component of various molar ratios. The RNA cargos were dissolved in 25 mM citrate, 100 mM NaCl, pH 5.0, resulting in a concentration of RNA cargo of approximately 0.45 mg/mL. The LNPs were formulated with a lipid amine to RNA phosphate (N:P) molar ratio of about 4.5 or about 6, with the ratio of mRNA to gRNA at 1:1 by weight.
The LNPs were formed by microfluidic mixing of the lipid and RNA solutions using a Precision Nanosystems NanoAssemblr™ Benchtop Instrument, according to the manufacturer's protocol. A 2:1 ratio of aqueous to organic solvent was maintained during mixing using differential flow rates. […]
Additional PCR was performed per the manufacturer's protocols (Illumina) to add chemistry for sequencing. […] The reads were aligned to a reference genome (e.g., the human reference genome (hg38), the cynomologus reference genome (mf5), the rat reference genome (rn6), or the mouse reference genome (mm10)) after eliminating those having low quality scores. The resulting files containing the reads were mapped to the reference genome (BAM files), where reads that overlapped the target region of interest were selected and the number of wild type reads versus the number of reads which contain an insertion, substitution, or deletion was calculated.
The editing percentage (e.g., the “editing efficiency” or “percent editing” or “indel frequency”) is defined as the total number of sequence reads with insertions/deletions (“indels”) or substitutions over the total number of sequence reads, including wild type. […]

| Molecule | liver editing of the human TTR sequence (mean values) (human TTR sequence) | 12.5 ng mRNA, 3.9 nM sgRNA, Avg % Edit (TTR) |
| --- | --- | --- |
| B1 | ~60% |  |
| B2 |  | 80.70% |
| B3 | ~60% |  |
